Assay results: patent US20240166745A1 (Eli Lilly, published 2024)
Positions count from the first letter of the chain named. Blank lines part the entries; values can stand above or below the binder they belong to.

Columns and labels:
Cynomolgus PD-1-ECD = molecular target: T1, Cynomolgus PD-1-ECD (cynomolgus, UniProt B0LAJ3 25-170); experiment: SPR (Biacore T200), antibody captured on PrismA chip, ECD as analyte, 25° C.
T1 construct: commercial protein; also called cynomolgus PD-1-ECD (Sino Biologicals, Cat #90311-C08H); not shown: C-terminal polyhistidine tag of the vendor product (Sino Biological 90311-C08H)
Protocol: (§1) A Biacore® T200 (Cytiva, Marlborough, MA) was used to measure the binding kinetics and affinities of the LAG-3 antibody to the LAG-3 soluble extracellular domain (ECD) and the bispecific antibody to soluble LAG-3-ECD and PD-1-ECD (human: Sino Biologicals, Cat #10377-H08H; cynomolgus: Sino Biologicals, Cat #90311-C08H) by surface plasmon resonance. Samples were diluted in HBS-EP+ (10 mM Hepes, 150 mM NaCl, 3 mM EDTA, 0.05% Tween-20, pH 7.6) (Teknova Cat #H8022) with 5 g/L of BSA (Jackson ImmunoResearch Cat #001-000-161) running buffer. PrismA Series S Sensor chip (Cat #29650263) is purchased from Cytiva.
(§2) Binding was evaluated using multi-cycle kinetics by an antibody capture method. Each cycle was performed at either 37° C. or 25° C. at a flow rate of 10 μL/min for antibody capture to the PrismA chip and 100 μL/min for analyte association (with 120 sec contact time) and dissociation (900 sec). Each cycle consisted of the following steps: injection of bispecific antibody at 1 μg/mL in HBS-EP+ targeting Rmax values of 125 RU (LAG-3 arm), 294 RU (PD-1 arm) and 63 RU (LAG-3 antibody) on flow cell, injection of analyte in HBS-EP+(concentration range of 62.5 nM to 0.25 nM by two-fold serial dilution for both human PD-1-ECD-His (SEQ ID NO: 40) and human LAG-3-His (SEQ ID NO: 42) followed by 900-second dissociation phase, and regeneration using 10 μL of 10 mM glycine hydrochloride, pH 1.5 over a 60-second contact time utilizing a 10 μL/min flow rate. All analyte concentrations were determined utilizing monomeric molecular weight (MW) values. Association rates (kₒₙ) and dissociation rates (koff) for LAG-3-ECD and PD-1-ECD were evaluated using double referencing by flow-cell one reference subtraction in addition to 0 nM blank subtraction and fit to “1:1 (Langmuir) binding” model in the BIAevaluation software version 4.1. The dissociation constant (KD) was calculated from the binding kinetics according to the relationship KD=Koff/Kₒₙ. Stoichiometry=[RUₘₐₓ/RUcaptured]/[MWanalyte/MWantibody] where MWAntibodyA is 150 kDa. Values are reported as mean±standard deviation.

Human LAG-3 ECD-His = molecular target: T2, Human LAG-3 ECD-His (human, UniProt P18627 23-449); experiment: as above
T2 construct: Soluble analyte in SPR; the entry includes linker and His tag; also called human LAG-3-His
T2 sequence: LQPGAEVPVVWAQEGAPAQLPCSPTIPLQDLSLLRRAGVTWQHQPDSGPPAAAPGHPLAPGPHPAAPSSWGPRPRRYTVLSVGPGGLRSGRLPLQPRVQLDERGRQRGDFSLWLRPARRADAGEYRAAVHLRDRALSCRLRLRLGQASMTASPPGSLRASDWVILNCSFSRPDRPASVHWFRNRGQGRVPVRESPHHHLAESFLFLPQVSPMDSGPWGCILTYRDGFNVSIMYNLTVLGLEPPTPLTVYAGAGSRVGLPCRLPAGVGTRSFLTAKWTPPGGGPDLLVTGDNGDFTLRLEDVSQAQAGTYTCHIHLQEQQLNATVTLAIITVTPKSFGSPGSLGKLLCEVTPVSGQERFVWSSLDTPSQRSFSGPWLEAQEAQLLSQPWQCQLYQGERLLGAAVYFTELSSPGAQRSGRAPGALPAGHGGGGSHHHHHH
Protocol: as §1, §2

Human PD-1 ECD-His = molecular target: T3, Human PD-1 ECD-His (human, UniProt Q15116 25-167); experiment: as above
T3 construct: Soluble analyte in SPR; the entry includes the His tag
Protocol: as §1, §2

[1] = molecular target: T4, cell membrane-expressed cynomolgus LAG-3/PD-1 (cynomolgus); experiment: flow cytometry, labeled antibody on anti-CD3 activated cynomolgus PBMC, CD8 T cells, percent of cells bound (mean +/- SEM, n=3)
T4 construct: whole, on cells; Two separate membrane proteins on the same cells, not a complex; also called Cyno CD4
Protocol: (§3) Cells were incubated with 10-12 point, 3-fold serial dilutions of the respective labeled antibody (Invitrogen #S20026, Invitrogen #C20029), starting at 30 ug/mL, in PBS+2% FCS for 30 minutes at 4° C. and containing the following: CD4 eBioscience #12-0047-42 or Biolegend #344634; CD8 eBioscience #25-0088-42; CD3 eBioscience 56-0038-82 for human cells and BD #557917 for cyno cells; CD33 eBioscience 45-0338-42 for human cells; Live/Dead eBioscience #65-0865-18. After washing thoroughly, cells were processed on a BD Fortessa or Fortessa X20 cytometer, and data were analyzed with Flowjo software (BD Biosciences). Percent of cells bound by the respective antibody is quantified and graphed with Prism (Graphpad, San Diego, CA).

[2] = molecular target: T5, cell membrane-expressed human LAG-3/PD-1 (human, UniProt P18627 23-525; Q15116 25-288); experiment: flow cytometry, labeled antibody on anti-CD3 activated human PBMC, CD8 T cells, percent of cells bound (mean +/- SEM, n=3)
T5 construct: also called Human CD4
Protocol: as §3

T3 sequence (Q15116 other isoform, or with tags, fused parts or gaps): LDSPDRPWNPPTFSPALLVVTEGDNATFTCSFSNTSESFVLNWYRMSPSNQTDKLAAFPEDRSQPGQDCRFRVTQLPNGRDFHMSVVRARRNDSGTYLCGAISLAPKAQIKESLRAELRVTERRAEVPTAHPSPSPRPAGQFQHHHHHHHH
T1 sequence (B0LAJ3 entry or part of it limits assumed): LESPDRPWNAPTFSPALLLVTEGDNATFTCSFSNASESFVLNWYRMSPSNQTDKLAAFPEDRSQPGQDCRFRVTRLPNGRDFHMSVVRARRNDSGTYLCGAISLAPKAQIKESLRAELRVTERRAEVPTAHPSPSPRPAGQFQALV
T5 sequence (Q15116 25-288 limits assumed, one chain of several): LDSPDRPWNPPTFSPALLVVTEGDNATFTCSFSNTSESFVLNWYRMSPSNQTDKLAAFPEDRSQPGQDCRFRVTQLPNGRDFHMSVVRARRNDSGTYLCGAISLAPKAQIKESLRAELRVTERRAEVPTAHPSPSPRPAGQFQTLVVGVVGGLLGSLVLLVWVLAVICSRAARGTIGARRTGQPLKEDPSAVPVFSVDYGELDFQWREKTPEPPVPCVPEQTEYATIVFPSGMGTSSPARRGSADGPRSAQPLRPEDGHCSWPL
T4 sequence (P79185 26-458): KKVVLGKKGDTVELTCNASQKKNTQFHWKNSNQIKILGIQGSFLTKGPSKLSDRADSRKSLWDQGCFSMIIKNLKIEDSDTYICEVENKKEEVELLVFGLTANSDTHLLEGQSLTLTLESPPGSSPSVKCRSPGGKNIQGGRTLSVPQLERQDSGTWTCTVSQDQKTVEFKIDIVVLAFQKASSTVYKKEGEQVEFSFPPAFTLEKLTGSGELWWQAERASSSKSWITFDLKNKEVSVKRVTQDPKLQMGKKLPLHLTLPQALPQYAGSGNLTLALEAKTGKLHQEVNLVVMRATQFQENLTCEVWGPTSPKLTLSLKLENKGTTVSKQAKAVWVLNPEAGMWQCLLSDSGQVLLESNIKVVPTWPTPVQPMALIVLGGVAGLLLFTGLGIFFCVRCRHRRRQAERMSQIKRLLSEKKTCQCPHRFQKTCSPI

Kd (Cynomolgus PD-1-ECD): 1.6 nM | koff (Cynomolgus PD-1-ECD): 0.002 s⁻¹ | kon (Cynomolgus PD-1-ECD): 1.3e+06 M⁻¹ s⁻¹ | Kd (Human LAG-3 ECD-His): 0.55 nM | koff (Human LAG-3 ECD-His): 0.019 s⁻¹ | kon (Human LAG-3 ECD-His): 3.4e+07 M⁻¹ s⁻¹ | Kd (Human PD-1 ECD-His): 0.76 nM | koff (Human PD-1 ECD-His): 0.00057 s⁻¹ | EC50 [1]: 0.0167 µg/mL | EC50 [2]: 0.0068 µg/mL
B1: Antibody A (bispecific antibody, human IgG1, kappa, lambda)
heavy 1: not shown
light 1: DIVMTQTPLSLPVTPGEPASISCRSSQSLLDSAEGSTYLDWFLRKPGDSPQLLIYTLSYRASGVPDRFSGSGSGTDFTLKISRVEAEDVGVYYCMQRVEFPYTFGQGTKVEIKRTVAAPSVFIFPPSKEQLKSGTASVVCLLNNFYPREAKVQWKVDNALQSGNSQESVTEQDSKDSTYSLSSTLTLSKADYEKHKVYACEVTHQGLSSPVTKSFNRGEC
heavy 2: QVQLVQSGAEVKKPGASVKVSCKVSGYSLSKYDMSWVRKAPGKGLEWMGIIYTSGYTDYAQEFQGRVTMTEDTSTDTAYMELSSLRSEDTAVYYCATGNPYYTNGFNSWGQGTLVTVSSASTKGPSVFPLAPSSKSTSGGTAALGCLVKDYFPEPVTVSWNSGALTSGVATGPAVLQSSGLYSLSSVVTVPSSSLGTQTYICNVNHKPSNTKVDKRVEPKSCDKTHTCPPCPAPELLGGPSVFLFPPKPKDTLMISRTPEVTCVVVDVSHEDPEVKFNWYVDGVEVHNAKTKPREEQYNSTYRVVSVLTVLHQDWLNGKEYKCKVSNKALPAPIEKTISKAKGQPREPQVYTLPPSREEMTDNQVSLTCLVKGFYPSDIAVEWESNGQPENNYKTTPPVLMSDGSFFLASKLTVDKSRWQQGNVFSCSVMHEALHNHYTQKSLSLSPGK
light 2: RIQMTQSPSSLSASVGDRVTITCQASQSPNNLLAWYQDKPGKAPKLLIYGASDLPSGVPSRFSGSGSGTDFTLTISSLQPEDFATYYCQNNYYVGPVSYAFGGGTKVEIKGQPKAAPSVTLFPPSSEELQANKATLVCYISDFYPGAVTVAWKADSSPVKAGVETTTPSKQSNNKYAAWSYLSLTPEQWKSHRSYSCQVTHEGSTVEKTVAPTEC
notes: IgG-like bispecific with one LAG-3 arm and one PD-1 arm; also called human LAG-3/human PD-1 dual agonist bispecific antibody

Kd (Cynomolgus PD-1-ECD): 1.1 nM | koff (Cynomolgus PD-1-ECD): 0.0018 s⁻¹ | kon (Cynomolgus PD-1-ECD): 1.7e+06 M⁻¹ s⁻¹ | Kd (Human LAG-3 ECD-His): 0.53 nM | koff (Human LAG-3 ECD-His): 0.023 s⁻¹ | kon (Human LAG-3 ECD-His): 4.3e+07 M⁻¹ s⁻¹ | Kd (Human PD-1 ECD-His): 0.76 nM | koff (Human PD-1 ECD-His): 0.00058 s⁻¹ | kon (Human PD-1 ECD-His): 770000 M⁻¹ s⁻¹ | EC50 [1]: 0.018 µg/mL | EC50 [2]: 0.0077 µg/mL
B2: Antibody B (bispecific antibody, human IgG1, kappa, lambda)
heavy 1: not shown
light 1: B1 light 1
heavy 2: B1 heavy 2 with K324A
light 2: B1 light 2
notes: also called human LAG-3/human PD-1 dual agonist bispecific antibody
